One may read the stoichiometry N as a count of units in the complex or per binding partner.

Data set [1] concerns the molecule itself. Description: crystal structure; MC-HSP90-Ct, P6_322 crystal; 2.6 M ammonium sulfate, 0.1 M tri-sodium citrate pH 5.0, Silver Bullets No. 70; molecular replacement.
Data set [2] deals with the molecule itself. Briefly: crystal structure; MC-HSP90 in three crystal forms (C222_1 with cis-DEP, P2_1 with cisplatin, R32 with Silver Bullets No. 18); 2.5 M ammonium sulfate, 0.1 M tri-sodium citrate pH 5.4-5.8; molecular replacement.
Data set [3] concerns the molecule itself. Description: AUC; sedimentation velocity of fractions from the S-300 column, 0.3 mg/ml in 100 mM Tris-HCl, 45,000 rpm, 20°C, c(s) distribution (SEDFIT).

Where “and” joins values, the source holds several entries; their conditions need not be identical. Identical values can stand only once.

B1: MC-HSP90-Ct (human HSP90α residues 293–697, C-terminal 35 residues also truncated) (domain or fragment)
chain: not shown
notes: two extra Ala residues encoded after the Factor Xa cleavage site (same forward primer as MC-HSP90); human heat shock protein 90α, residues 293-697; Purified by a protocol similar to that of MC-HSP90; The reverse primer printed for this construct appears to encode eight His; also called C-terminal tail truncated MC-HSP90-Ct; source: E. coli BL21 (DE3), purified (Ni-NTA, Factor Xa cleavage, second …)
As for B1, the “stoichiometry N” value in data set [1] came out at 6.

B2: MC-HSP90 (N-terminal truncated human HSP90α, middle segment and carboxy-terminal domain, residues 293–732) (domain or fragment)
chain: not shown
notes: two extra Ala residues encoded after the Factor Xa cleavage site; found at the N-terminus by MALDI-MS of the dissolved crystal; human heat shock protein 90α, residues 293-732 (M and C domains), from a full length cDNA (NM_005348.2; 732 residues); In solution a mixture of dimer, tetramer and hexamer; The reverse primer encodes six His after the last residue; also called truncated HSP90; wild-type …
In the case of B2, the “stoichiometry N” value in data set [2] was 6; in data set [3], 2 and 4.

B3: MC-HSP90 W320A (domain or fragment)
chain: not shown
notes: two extra Ala residues encoded after the Factor Xa cleavage site (made on the plasmid pGEX-6p-1-MC-HSP90); human heat shock protein 90α, residues 293-732, with W320A; also called mutant W320A; mutant protein W320A of MC-HSP90; source: E. coli BL21 (DE3), expressed and purified as the wild-type MC-HSP90; not shown: GST, N-terminal, cleaved
Turning to B3, the “stoichiometry N” value in data set [3] was 6 and 2 and 4.

For the origin of these results see paper PMC3102065, “The Hexameric Structures of Human Heat Shock Protein 90” (PLoS ONE, 2011).
